Assay results from the supplement of paper PMC10065799, “High-throughput profiling of sequence recognition by tyrosine kinases and SH2 domains using bacterial peptide display” (eLife, 2023).

Target: Hck (UniProt P08631)
Test: phosphorylation enrichment, bacterial display (enrichment ratio); higher = better substrate or ligand; peptides without Tyr show the background
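Also: 11-residue human phosphosite peptides and single-mutation variants displayed on the E. coli surface, counted by deep sequencing, each peptide's frequency after selection divided by its frequency in the unselected input library; frequency after pTyr selection over input frequency; kinase dosed for 20-30% of maximal phosphorylation in three min.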

Sequence of Hck (P08631 whole entry, looked up): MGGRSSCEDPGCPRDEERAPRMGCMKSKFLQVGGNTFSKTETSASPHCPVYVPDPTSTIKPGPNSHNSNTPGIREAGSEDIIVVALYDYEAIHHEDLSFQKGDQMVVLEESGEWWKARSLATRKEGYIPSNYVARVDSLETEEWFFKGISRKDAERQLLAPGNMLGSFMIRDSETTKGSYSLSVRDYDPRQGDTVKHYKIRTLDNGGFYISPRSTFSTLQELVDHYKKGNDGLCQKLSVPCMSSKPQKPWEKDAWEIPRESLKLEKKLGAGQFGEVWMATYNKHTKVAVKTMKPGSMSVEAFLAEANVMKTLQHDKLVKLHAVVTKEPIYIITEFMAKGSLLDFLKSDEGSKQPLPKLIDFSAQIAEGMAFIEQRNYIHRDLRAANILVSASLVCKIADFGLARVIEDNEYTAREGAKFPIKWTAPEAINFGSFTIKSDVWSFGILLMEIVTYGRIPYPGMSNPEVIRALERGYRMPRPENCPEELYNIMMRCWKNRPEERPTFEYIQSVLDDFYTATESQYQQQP

Sequence	phosphorylation enrichment
VYLGAYDRFLP [SLC22A5_Y486]	5.32
FLGEEYVKAVG [TF_Y674_YF]	0.405
DLEKTYNTYRS [B4GALNT2_Y538_A533D]	0.761
MRNDLYQTPLH [NFKB1_Y582]	4.21
KHCEDYVCSFN [DSC1_Y846_YF]	0.446
GVYSRHFTTYD [CLCA1_Y661_Y661H]	1.31
PSARTYCFKQE [KLHDC9_Y175_YF]	0.413
LFHENYNAGTF [CFI_Y421_I416L_YF]	0.596
ELAKYYKLHHI [AK7_Y391_N389K]	0.393
PEVSGYCHCAD [TG_Y234]	1.08
DPNQQYFIAMD [TBX15_Y159_H156N_YF]	0.493
GSERRYTREGG [PTPRN2_Y139_S140T]	0.415
SQQTFYPVSNM [ABCD1_Y181_R182P_YF]	0.407
EFKDAYKFAAD [BRDT_Y335_YF]	0.429
KTSGNYLAVTG [WDR19_Y28]	0.454
TFGVAYRAKDK [CDK11B_Y453_V452A_YF]	0.537
SGGSSYGSGGC [KRT1_Y532_G537C]	0.493
PTDCVYVMPTV [MYO7A_Y1668_S1666C]	4.49
TLQSMYGCDLG [HLA-B_Y123_V127L]	0.591
SLDHPFEKPRK [INAVA_Y333_Y333F]	0.376
GRTNICKNKKD [SLC26A3_Y520_Y520C]	0.482
AGADGYDFLAP [FOXL2_Y186_G187D_YF]	0.79
VISNAYVDLAP [HSD17B4_Y602]	0.471
PPNSPYIGSSP [KCNT1_Y740]	0.457
CEQELYSQLVY [WAS_Y102_W97C]	6.75
FFTEEYVRAHP [DOCK2_Y1555_D1558A]	0.599
HRGFLYLAIEF [TEK_Y899_Y897F_YF]	0.627
AYRHGYFDEEM [PLEC_Y2971_R2969H]	0.643
KGIQLYDTPYE [SHB_Y297]	1.84

Target: Jak2 (UniProt O60674)
Sequence (O60674 whole entry, looked up): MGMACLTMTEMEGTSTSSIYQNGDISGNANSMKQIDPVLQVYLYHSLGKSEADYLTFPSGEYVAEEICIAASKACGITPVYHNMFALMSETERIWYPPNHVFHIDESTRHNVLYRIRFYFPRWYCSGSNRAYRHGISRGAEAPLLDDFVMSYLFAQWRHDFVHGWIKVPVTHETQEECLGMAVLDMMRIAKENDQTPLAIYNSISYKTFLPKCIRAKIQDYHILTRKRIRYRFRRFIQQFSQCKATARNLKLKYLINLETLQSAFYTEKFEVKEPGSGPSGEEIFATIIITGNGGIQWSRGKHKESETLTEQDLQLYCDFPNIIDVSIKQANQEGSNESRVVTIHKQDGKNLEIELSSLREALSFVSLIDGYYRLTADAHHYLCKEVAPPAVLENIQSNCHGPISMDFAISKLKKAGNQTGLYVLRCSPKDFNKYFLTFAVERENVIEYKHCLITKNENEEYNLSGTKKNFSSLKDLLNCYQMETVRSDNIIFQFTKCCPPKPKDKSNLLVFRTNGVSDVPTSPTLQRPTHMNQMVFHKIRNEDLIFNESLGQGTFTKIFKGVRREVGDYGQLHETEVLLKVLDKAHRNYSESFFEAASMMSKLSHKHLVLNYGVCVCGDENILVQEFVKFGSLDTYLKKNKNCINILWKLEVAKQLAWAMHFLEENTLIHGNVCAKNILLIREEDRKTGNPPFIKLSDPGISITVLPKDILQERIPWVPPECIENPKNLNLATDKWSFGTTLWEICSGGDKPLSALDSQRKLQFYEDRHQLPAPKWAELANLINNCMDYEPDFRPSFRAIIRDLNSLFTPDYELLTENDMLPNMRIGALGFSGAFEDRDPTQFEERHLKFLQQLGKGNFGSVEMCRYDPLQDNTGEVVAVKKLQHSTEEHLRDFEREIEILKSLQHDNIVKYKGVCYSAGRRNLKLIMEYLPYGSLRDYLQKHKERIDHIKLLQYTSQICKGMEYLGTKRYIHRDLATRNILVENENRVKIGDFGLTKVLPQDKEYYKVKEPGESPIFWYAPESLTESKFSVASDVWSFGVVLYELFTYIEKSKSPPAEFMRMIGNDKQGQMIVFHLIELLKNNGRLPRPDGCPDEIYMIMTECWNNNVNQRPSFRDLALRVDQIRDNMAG
Test: as above

Sequence	phosphorylation enrichment
VYLGAYDRFLP [SLC22A5_Y486]	0.74
FLGEEYVKAVG [TF_Y674_YF]	0.853
DLEKTYNTYRS [B4GALNT2_Y538_A533D]	0.823
MRNDLYQTPLH [NFKB1_Y582]	0.693
KHCEDYVCSFN [DSC1_Y846_YF]	1.13
GVYSRHFTTYD [CLCA1_Y661_Y661H]	0.507
PSARTYCFKQE [KLHDC9_Y175_YF]	0.624
LFHENYNAGTF [CFI_Y421_I416L_YF]	1.07
ELAKYYKLHHI [AK7_Y391_N389K]	0.987
PEVSGYCHCAD [TG_Y234]	2.21
DPNQQYFIAMD [TBX15_Y159_H156N_YF]	0.911
GSERRYTREGG [PTPRN2_Y139_S140T]	0.463
SQQTFYPVSNM [ABCD1_Y181_R182P_YF]	0.598
EFKDAYKFAAD [BRDT_Y335_YF]	0.638
KTSGNYLAVTG [WDR19_Y28]	0.449
TFGVAYRAKDK [CDK11B_Y453_V452A_YF]	1.09
SGGSSYGSGGC [KRT1_Y532_G537C]	0.677
PTDCVYVMPTV [MYO7A_Y1668_S1666C]	1.1
TLQSMYGCDLG [HLA-B_Y123_V127L]	1.06
SLDHPFEKPRK [INAVA_Y333_Y333F]	0.663
GRTNICKNKKD [SLC26A3_Y520_Y520C]	1.16
AGADGYDFLAP [FOXL2_Y186_G187D_YF]	1.03
VISNAYVDLAP [HSD17B4_Y602]	0.707
PPNSPYIGSSP [KCNT1_Y740]	0.417
CEQELYSQLVY [WAS_Y102_W97C]	1.22
FFTEEYVRAHP [DOCK2_Y1555_D1558A]	1.07
HRGFLYLAIEF [TEK_Y899_Y897F_YF]	1.7
AYRHGYFDEEM [PLEC_Y2971_R2969H]	0.827
KGIQLYDTPYE [SHB_Y297]	1.13

Target: MERTK (UniProt Q12866)
Sequence (Q12866 whole entry, looked up): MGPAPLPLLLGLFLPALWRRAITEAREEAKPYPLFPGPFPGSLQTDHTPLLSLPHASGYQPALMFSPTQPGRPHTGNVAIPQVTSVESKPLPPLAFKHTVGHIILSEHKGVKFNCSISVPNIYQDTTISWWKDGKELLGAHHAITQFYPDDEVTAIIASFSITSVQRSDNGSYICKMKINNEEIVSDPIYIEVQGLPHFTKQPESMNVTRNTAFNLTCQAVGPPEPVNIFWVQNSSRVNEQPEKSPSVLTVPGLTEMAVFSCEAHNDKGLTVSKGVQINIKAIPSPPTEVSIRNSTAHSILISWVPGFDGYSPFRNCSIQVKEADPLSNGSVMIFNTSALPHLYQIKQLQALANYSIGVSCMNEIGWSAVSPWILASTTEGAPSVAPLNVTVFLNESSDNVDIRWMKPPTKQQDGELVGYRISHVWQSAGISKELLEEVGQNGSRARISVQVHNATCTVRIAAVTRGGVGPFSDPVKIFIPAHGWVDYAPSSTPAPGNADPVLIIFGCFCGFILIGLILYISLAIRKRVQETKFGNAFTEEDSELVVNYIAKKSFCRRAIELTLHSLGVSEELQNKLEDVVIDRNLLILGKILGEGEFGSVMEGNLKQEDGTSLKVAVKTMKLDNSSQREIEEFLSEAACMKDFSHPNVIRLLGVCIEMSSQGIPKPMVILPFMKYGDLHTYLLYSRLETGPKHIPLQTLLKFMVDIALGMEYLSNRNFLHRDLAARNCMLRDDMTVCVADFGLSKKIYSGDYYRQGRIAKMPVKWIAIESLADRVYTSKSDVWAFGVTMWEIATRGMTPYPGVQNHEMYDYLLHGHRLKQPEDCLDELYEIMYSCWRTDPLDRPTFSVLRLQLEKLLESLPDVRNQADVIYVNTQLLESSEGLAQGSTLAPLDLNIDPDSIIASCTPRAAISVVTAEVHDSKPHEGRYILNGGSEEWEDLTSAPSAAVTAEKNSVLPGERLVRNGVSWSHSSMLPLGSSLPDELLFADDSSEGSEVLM
Test: as above

Sequence	phosphorylation enrichment
VYLGAYDRFLP [SLC22A5_Y486]	4.72
FLGEEYVKAVG [TF_Y674_YF]	0.412
DLEKTYNTYRS [B4GALNT2_Y538_A533D]	0.424
MRNDLYQTPLH [NFKB1_Y582]	2.62
KHCEDYVCSFN [DSC1_Y846_YF]	0.424
GVYSRHFTTYD [CLCA1_Y661_Y661H]	0.569
PSARTYCFKQE [KLHDC9_Y175_YF]	0.429
LFHENYNAGTF [CFI_Y421_I416L_YF]	0.654
ELAKYYKLHHI [AK7_Y391_N389K]	0.376
PEVSGYCHCAD [TG_Y234]	0.936
DPNQQYFIAMD [TBX15_Y159_H156N_YF]	0.356
GSERRYTREGG [PTPRN2_Y139_S140T]	0.382
SQQTFYPVSNM [ABCD1_Y181_R182P_YF]	0.374
EFKDAYKFAAD [BRDT_Y335_YF]	0.492
KTSGNYLAVTG [WDR19_Y28]	0.757
TFGVAYRAKDK [CDK11B_Y453_V452A_YF]	0.358
SGGSSYGSGGC [KRT1_Y532_G537C]	0.431
PTDCVYVMPTV [MYO7A_Y1668_S1666C]	6.63
TLQSMYGCDLG [HLA-B_Y123_V127L]	0.518
SLDHPFEKPRK [INAVA_Y333_Y333F]	0.365
GRTNICKNKKD [SLC26A3_Y520_Y520C]	0.366
AGADGYDFLAP [FOXL2_Y186_G187D_YF]	0.708
VISNAYVDLAP [HSD17B4_Y602]	0.589
PPNSPYIGSSP [KCNT1_Y740]	0.422
CEQELYSQLVY [WAS_Y102_W97C]	5.03
FFTEEYVRAHP [DOCK2_Y1555_D1558A]	0.397
HRGFLYLAIEF [TEK_Y899_Y897F_YF]	0.711
AYRHGYFDEEM [PLEC_Y2971_R2969H]	0.5
KGIQLYDTPYE [SHB_Y297]	5.25

Tested on: c-Abl (mouse)
Test: as above

Sequence	phosphorylation enrichment
VYLGAYDRFLP [SLC22A5_Y486]	1.2
FLGEEYVKAVG [TF_Y674_YF]	0.598
DLEKTYNTYRS [B4GALNT2_Y538_A533D]	0.441
MRNDLYQTPLH [NFKB1_Y582]	5.88
KHCEDYVCSFN [DSC1_Y846_YF]	0.719
GVYSRHFTTYD [CLCA1_Y661_Y661H]	0.359
PSARTYCFKQE [KLHDC9_Y175_YF]	0.491
LFHENYNAGTF [CFI_Y421_I416L_YF]	0.597
ELAKYYKLHHI [AK7_Y391_N389K]	0.665
PEVSGYCHCAD [TG_Y234]	1.83
DPNQQYFIAMD [TBX15_Y159_H156N_YF]	0.672
GSERRYTREGG [PTPRN2_Y139_S140T]	0.489
SQQTFYPVSNM [ABCD1_Y181_R182P_YF]	0.57
EFKDAYKFAAD [BRDT_Y335_YF]	0.459
KTSGNYLAVTG [WDR19_Y28]	0.445
TFGVAYRAKDK [CDK11B_Y453_V452A_YF]	0.498
SGGSSYGSGGC [KRT1_Y532_G537C]	0.697
PTDCVYVMPTV [MYO7A_Y1668_S1666C]	7.37
TLQSMYGCDLG [HLA-B_Y123_V127L]	1.06
SLDHPFEKPRK [INAVA_Y333_Y333F]	0.61
GRTNICKNKKD [SLC26A3_Y520_Y520C]	1.39
AGADGYDFLAP [FOXL2_Y186_G187D_YF]	0.785
VISNAYVDLAP [HSD17B4_Y602]	0.475
PPNSPYIGSSP [KCNT1_Y740]	0.572
CEQELYSQLVY [WAS_Y102_W97C]	1.14
FFTEEYVRAHP [DOCK2_Y1555_D1558A]	1.01
HRGFLYLAIEF [TEK_Y899_Y897F_YF]	1.52
AYRHGYFDEEM [PLEC_Y2971_R2969H]	0.742
KGIQLYDTPYE [SHB_Y297]	1.13
